# Assay results published in patent US20210355225A1 (OSE IMMUNOTHERAPEUTICS, published 2021).
# Substitutions are numbered along the chain they refer to. Where two headings read alike, the source gives them in different places.
# B1: HCLD (antibody, human IgG4 S228P, kappa, V domains shown)
# VH: QIQLVQSGSELKKPGASVKVSCKASGYTFTHYAMNWVRQAPGQGLEWMGWINTNTGEPTYAQGFTGRFVFSLDTSVSTAYLQISSLKAEDTAVYYCAREREPGMDSWGQGTLVTVSS
# VL: DVVMTQSPLSLPVTLGQPASISCRSSQSLVHANTNTYLEWYQQRPGQSPRLLIYKVSNRFSGVPDRFSGSGSGTDFTLKISRVEAEDVGVYYCFQGTHVPNTFGQGTKLEIKR
# notes: also called humanized anti-PD1 variant HC heavy chain + LD light chain
# B2: HCLC (antibody, human IgG4 S228P, kappa, V domains shown)
# VH: B1 VH
# VL: B1 VL with T34G
# notes: also called humanized anti-PD1 variant HC heavy chain + LC light chain
# B3: HELC (antibody, human IgG4 S228P, kappa, V domains shown)
# VH: B1 VH with S106T
# VL: B1 VL with T34G
# notes: also called humanized anti-PD1 variant HE heavy chain + LC light chain
# B4: HELD (antibody, human IgG4 S228P, kappa, V domains shown)
# VH: B1 VH with S106T
# VL: B1 VL
# notes: also called humanized anti-PD1 variant HE heavy chain + LD light chain; HELD(V94)
# B5: HGLD (antibody, human IgG4 S228P, kappa, V domains shown)
# VH: B1 VH with D105E
# VL: B1 VL
# notes: also called humanized anti-PD1 variant HG heavy chain + LD light chain
# B6: HHLD (antibody, human IgG4 S228P, kappa, V domains shown)
# VH: B1 VH with S106H
# VL: B1 VL
# notes: also called humanized anti-PD1 variant HH heavy chain + LD light chain
# B7: HILD (antibody, human IgG4 S228P, kappa, V domains shown)
# VH: B1 VH with S106A
# VL: B1 VL
# notes: also called humanized anti-PD1 variant HI heavy chain + LD light chain
# B8: HJLD (antibody, human IgG4 S228P, kappa, V domains shown)
# VH: B1 VH with S106Y
# VL: B1 VL
# notes: also called humanized anti-PD1 variant HJ heavy chain + LD light chain
# B9: HKLD (antibody, human IgG4 S228P, kappa, V domains shown)
# VH: B1 VH with S106N
# VL: B1 VL
# notes: also called humanized anti-PD1 variant HK heavy chain + LD light chain; humanized anti PD-1 (HKLD variant)
# B10: HLLD (antibody, human IgG4 S228P, kappa, V domains shown)
# VH: B1 VH with S106E
# VL: B1 VL
# notes: also called humanized anti-PD1 variant HL heavy chain + LD light chain
# Experiments:
# [1] = target: chimeric PD-1 receptor fused to Beta-gal fragment (ED) on Jurkat T cells (DiscoverX PathHunter Jurkat PD-1 … (UniProt Q15116 25-288)); assay: cell-based or functional assay
# Chain of chimeric PD-1 receptor fused to Beta-gal fragment (ED) on Jurkat T cells (DiscoverX PathHunter Jurkat PD-1 … (Q15116 25-288, change not shown): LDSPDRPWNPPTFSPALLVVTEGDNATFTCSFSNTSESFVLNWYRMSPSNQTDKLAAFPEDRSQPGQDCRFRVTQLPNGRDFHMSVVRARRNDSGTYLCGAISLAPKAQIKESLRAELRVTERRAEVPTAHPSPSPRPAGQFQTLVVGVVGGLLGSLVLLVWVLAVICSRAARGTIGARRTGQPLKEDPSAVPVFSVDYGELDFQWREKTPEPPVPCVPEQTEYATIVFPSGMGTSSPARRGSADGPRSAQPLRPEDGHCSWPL
# [2] = target: T1, human PD-1 expressed on the cell surface (human, UniProt Q15116 25-288); assay: flow cytometry on CD3/CD28 stimulated human T cells (PD1+ CD3+); given as ED50
# T1 construct: whole, on cells; PD-1 on CD3/CD28 stimulated human T cells (flow cytometry), on Promega Jurkat effector cells and on human M1 macrophages (functional assays); also called PD1+ positive CD3+ T cell population; PD-1+ T cells
# T1 sequence (Q15116 25-288): as the sequence (Q15116 25-288, change not shown) above
# Protocol: (§1) Detection was performed with a donkey anti-human antibody coupled to peroxidase and revelation was performed by colorimetry at 450 nm using TMB substrate. […] B: Assessment of antibody binding by cytofluorometry on CD3/CD28 stimulated human PBMCs. […] Data are represented by Mean Fluorescence Intensity (MFI) staining in PD1+ positive CD3+ T cell population. C: Assessment of antibody binding by cytofluorometry on CD3/CD28 stimulated T cells. […] Data are represented by Mean Fluorescence Intensity (MFI) staining in PD1+ positive CD3+ T cell population
# [3] = target: T2, biotinylated Human PD1 (AcroBiosystems, reference EP-101) (human, UniProt Q15116 25-167, biotinylated); assay: competition ELISA, immobilized hPDL1 as competitor, biotinylated PD1 0.66 µg/ml mixed with antibody
# T2 construct: also called Biotin-PD-1Fc; not shown: Fc part implied by the name 'Biotin-PD-1Fc'
# T2 sequence (Q15116 25-167): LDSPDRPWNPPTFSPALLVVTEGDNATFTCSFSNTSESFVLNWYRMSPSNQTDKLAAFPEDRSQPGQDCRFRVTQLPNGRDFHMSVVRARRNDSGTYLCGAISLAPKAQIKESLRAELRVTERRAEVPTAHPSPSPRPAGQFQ
# [4] = target: T1, human PD-1 expressed on the cell surface; assay: cell-based or functional assay
# [5] = target: T3, Recombinant hPD1-His (Sino Biologicals, reference […]-H08H) (human, UniProt Q15116 25-167); assay: ELISA, immobilized recombinant hPD1, purified antibody from HEK cells; given as ED50
# T3 construct: Bought reagent; also called human PD1 recombinant protein; PD-1 recombinant protein; not shown: histidine tail
# Protocol: as §1
# [6] = target: T3, Recombinant hPD1-His (Sino Biologicals, …); assay: Blitz (BLI), hPD1-His on Ni-NTA biosensor, antibody 20 µg/mL in solution (avidity)
# Protocol: The binding affinity/avidity was measured using Blitz method (Forté Bio; USA; reference C22-2 No 61010-1). […] Then, anti-PD1 antibodies were associated with 20 μg/mL for 120 seconds. The dissociation of anti-PD1 antibody was made in kinetics buffer for 120 seconds. Analysis data was made with the Blitz pro 1.2 software, which calculated association constant (ka) and dissociation constant (kd) and determined the affinity constant KD […].
# [7] = target: T3, Recombinant hPD1-His (Sino Biologicals, …); assay: Biacore competition with PDL1 for PD1, relative response in % of no Ab
# [8] = target: T1, human PD-1 expressed on the cell surface; assay: Flow cytometry on CD3/CD28 stimulated human PBMCs, PE-labelled mouse anti-human Fc mAb, MFI in the PD1+ CD3+ T cell population
# Protocol: as §1
# [9] = target: T3, Recombinant hPD1-His (Sino Biologicals, …); assay: ELISA on immobilised recombinant hPD1, DO 450 nm
# [10] = target: T3, Recombinant hPD1-His (Sino Biologicals, …); assay: ELISA on immobilised recombinant hPD1, DO 450 nm; remark: listed apart in the source
# [11] = target: T3, Recombinant hPD1-His (Sino Biologicals, …); assay: Biacore SPR, antibody captured on anti-human Fc, hPD1-His as analyte
# Protocol: The affinity measurement was performed by Biacore in PP21 platform (Inserm U1194, Université de Montpellier). Anti-human Fc antibody (GEHealthcare) was immobilized at 25 μg/ml in acetate buffer pH5.
binder,measurement,setting,value
B1,"IC50 of PD-1/pSHP-1 signaling, DiscoverX PathHunter Jurkat PD-1 (SHP1) assay, chemiluminescence",[1],12.7 ng/mL
same,EC50,[2],0.278 nM
same,IC50,[3],0.196 µg/mL
same,"ED50 of NFAT luciferase luminescence, Promega PD-1/PD-L1 bioassay",[4],0.41 µg/mL
same,EC50,[5],0.0127 µg/mL
same,Kd,[6],1.34 nM
same,koff,[6],0.000429 s⁻¹
same,kon,[6],319000 M⁻¹ s⁻¹
B2,binding result,[7],binds
B3,EC50 (read off the curve),[8],~0.3 µg/mL
B4,EC50 (read off the curve),[9],~0.01 µg/mL
same,"IC50 of PD-1/pSHP-1 signaling, DiscoverX PathHunter Jurkat PD-1 (SHP1) assay, chemiluminescence",[1],19.2 ng/mL
same,EC50,[2],0.402 nM
same,EC50 (read off the curve),[10],~0.009 µg/mL
same,IC50,[3],0.196 µg/mL
same,"ED50 of NFAT luciferase luminescence, Promega PD-1/PD-L1 bioassay",[4],0.46 µg/mL
same,EC50,[5],0.0192 µg/mL
same,EC50 (read off the curve),[8],~0.3 µg/mL
same,Kd,[6],1.14 nM
same,koff,[6],0.000507 s⁻¹
same,kon,[6],443000 M⁻¹ s⁻¹
B5,"IC50 of PD-1/pSHP-1 signaling, DiscoverX PathHunter Jurkat PD-1 (SHP1) assay, chemiluminescence",[1],14.8 ng/mL
same,EC50,[2],1.54 nM
same,IC50,[3],0.178 µg/mL
same,"ED50 of NFAT luciferase luminescence, Promega PD-1/PD-L1 bioassay",[4],1.16 µg/mL
same,EC50,[5],0.0147 µg/mL
same,Kd,[6],1.28 nM
same,koff,[6],0.000352 s⁻¹
same,kon,[6],274000 M⁻¹ s⁻¹
B6,"IC50 of PD-1/pSHP-1 signaling, DiscoverX PathHunter Jurkat PD-1 (SHP1) assay, chemiluminescence",[1],16.9 ng/mL
same,EC50,[2],0.133 nM
same,IC50,[3],0.201 µg/mL
same,"ED50 of NFAT luciferase luminescence, Promega PD-1/PD-L1 bioassay",[4],0.54 µg/mL
same,EC50,[5],0.0164 µg/mL
same,Kd,[6],0.84 nM
same,koff,[6],0.000343 s⁻¹
same,kon,[6],405000 M⁻¹ s⁻¹
B7,"IC50 of PD-1/pSHP-1 signaling, DiscoverX PathHunter Jurkat PD-1 (SHP1) assay, chemiluminescence",[1],11.6 ng/mL
same,EC50,[2],0.118 nM
same,IC50,[3],0.175 µg/mL
same,"ED50 of NFAT luciferase luminescence, Promega PD-1/PD-L1 bioassay",[4],0.4 µg/mL
same,EC50,[5],0.0115 µg/mL
same,Kd,[6],0.93 nM
same,koff,[6],0.000427 s⁻¹
same,kon,[6],458000 M⁻¹ s⁻¹
B8,"IC50 of PD-1/pSHP-1 signaling, DiscoverX PathHunter Jurkat PD-1 (SHP1) assay, chemiluminescence",[1],13.4 ng/mL
same,EC50,[2],0.241 nM
same,IC50,[3],0.194 µg/mL
same,"ED50 of NFAT luciferase luminescence, Promega PD-1/PD-L1 bioassay",[4],0.9 µg/mL
same,EC50,[5],0.0134 µg/mL
same,Kd,[6],1.05 nM
same,koff,[6],0.000432 s⁻¹
same,kon,[6],410000 M⁻¹ s⁻¹
B9,"IC50 of PD-1/pSHP-1 signaling, DiscoverX PathHunter Jurkat PD-1 (SHP1) assay, chemiluminescence",[1],11.4 ng/mL
same,EC50,[2],0.187 nM
same,IC50,[3],0.205 µg/mL
same,"ED50 of NFAT luciferase luminescence, Promega PD-1/PD-L1 bioassay",[4],0.69 µg/mL
same,Kd,[11],4.1 nM
same,koff,[11],~0.00133 s⁻¹
same,kon,[11],324000 M⁻¹ s⁻¹
same,EC50,[5],0.0114 µg/mL
same,Kd,[6],0.75 nM
same,koff,[6],0.000262 s⁻¹
same,kon,[6],351000 M⁻¹ s⁻¹
B10,"IC50 of PD-1/pSHP-1 signaling, DiscoverX PathHunter Jurkat PD-1 (SHP1) assay, chemiluminescence",[1],16.6 ng/mL
same,EC50,[2],0.223 nM
same,IC50,[3],0.156 µg/mL
same,"ED50 of NFAT luciferase luminescence, Promega PD-1/PD-L1 bioassay",[4],0.89 µg/mL
same,EC50,[5],0.0166 µg/mL
same,Kd,[6],1.25 nM
same,koff,[6],0.000554 s⁻¹
same,kon,[6],441000 M⁻¹ s⁻¹
